Reference: US20160184401A1, “NON-AGGLOMERATING BIOCONJUGATES OF AMYLIN AND AMYLIN-MIMETIC COMPOUNDS, COMPOSITIONS COMPRISING THE SAME, AND MAKING AND USE THEREOF” (UNIVERSIDADE FEDERAL DO RIO DE JANEIRO, priority 2013, published 2016)
Ends that are not written are not given here.

How the values were obtained:
[1] = Short-term stability with insulin analogues, ThT binding assay; format: physicochemical; settings: 10 μM of each compound, 10 mM NaH2PO4 pH 7.4, 24h at 25° C.; FIG. 13A-D
Description: The aggregation ratio of human amylin or its PEGylated derivative upon combination with insulin R, insulin detemir, or insulin glargine was tested by ThT binding assay. Combinations (10 μM of each compound) were incubated with 10 mM NaH2PO4 pH 7.4 and in presence of 10 μM ThT, for 24h at 25° C. Fluorescence variations indicating amyloid fibers formation were monitored by exciting at 450 nm and measuring emission at 482 nm.

[2] = Amyloid aggregation of human amylin by thioflavin T (ThT) binding; format: physicochemical; settings: pH 7.4, FIG. 7
Description: Purified monoPEGylated human amylin of example 1 was re-suspended in DMSO and diluted to PBS pH 7.4 and allowed to incubate at 37° C. Samples were evaluated for amyloid aggregates by using the amyloid chromogenic probe thioflavin T (ThT). The employment of ThT binding protocols to measure amyloid fibril formation has already been determined in the art (see, e.g., Levine, 1999). The kinetics of amylin (50 μM of free or hAmy-PEG5k) aggregation was performed by incubating the protein in 10 mM NaH2PO4 pH 7.4 at 25° C. Aggregation was followed by the binding of Thioflavin T (ThT) to amyloid fibrils, by adding 160 μL sample with 40 μL ThT 100 μM and monitoring fluorescence by exciting at 450 nm and measuring emission at 482 nm for 24 h

RAMP3 = biological target: T1, RAMP3 (Homo sapiens, UniProt O60896); assay: RAMP3 coreceptor binding, fluorescence anisotropy of RAMP-FITC; settings: duplicate assays, FIG. 6
T1 sequence (O60896 24-148): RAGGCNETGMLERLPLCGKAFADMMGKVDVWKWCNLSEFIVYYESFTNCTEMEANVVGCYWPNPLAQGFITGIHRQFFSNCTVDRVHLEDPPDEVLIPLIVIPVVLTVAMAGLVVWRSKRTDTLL
Description: (§1) Purified monoPEGylated human amylin was assayed for RAMP2 and RAMPS coreceptor binding interaction.
(§2) RAMP (receptor activity modifying protein) was labeled with fluorescein isothiocianate for 1 h at 4° C. in PBS ([…]) pH 7.4, and purified by size exclusion chromatography (SEC) in Sepharose G25 (agarose-based chromatography media, provided by the US company GE Healthcare) using the same buffer. Labelling was confirmed by UV absorbance measurements at A280 and A490, allowing estimation of coupling efficiency, relying on about 0.5 fluorescein/RAMP molecule.

RAMP2 = RAMP2 (Homo sapiens, UniProt O60895); assay: RAMP2 coreceptor binding, fluorescence anisotropy of RAMP-FITC; settings: duplicate assays, FIG. 5
Description: as §1, §2

[3] = Long-term effect of pH on aggregation of hAmyPEG5k; format: physicochemical; settings: 7 days at 25° C. then 9 days at 37° C. (16 days total); FIG. 12
Description: In another experimental setting, the influence of pH over the stability of the hAmyPEG5k was also tested for a longer period of time (up to 16 days) and at higher energy environments (37° C.). […] (i.e., 16 days total).

[4] = Isoelectric focusing (pI determination); format: physicochemical; settings: IEF, pH 3-10 linear immobilized pH gradient strips; FIG. 9
Description: Sixty micrograms of acetylated human amylin (AcO-hAmy) or hAmyPEG5k were dissolved into 8 M urea, 2% CHAPS and 0.002% bromophenol blue buffer to a final volume of 125 μL. The samples were incubated into a 7 cm pH 3-10 linear immobilized pH gradient strips overnight prior to isoelectric focalization (IEF). The IEF was carried out in MultiPhor II (Pharmacia Biotech) device at 20° C. according to the following conditions, 200 V (1 min), ramping to 3500 V (90 min) and 3500 V (60 min). At the end, the strips were fixed with 0.20% glutaraldehyde (in 30% ethanol, 0.2 M sodium acetate) for 60 min at room temperature, and then stained for peptide identification by Coomassie brilliant blue R-250 (at 0.025% in 40% methanol, 7% acetic acid) for 30 min. The excess of Coomassie was removed by incubation with 0.1% acetic acid until no background visualization. The IEF can be easily calculated from the relationship between displacements in the strips and pH. As depicted in FIG. 9, the acetylation of Lys1 present in AcO-hAmy (FIG. 9A) and the PEGylation in the same site, present in hAmy-PEG5k (FIG. 9B), results in similar effects on the pI of human amylin, […] it to approximately 9.2.

[5] = Pharmacokinetics in rats, plasma ELISA for human amylin; format: in vivo, Harlan Sprague Dawley male rats; settings: 100 μg peptide in 500 uL saline, FIG. 8A-C
Description: The pharmacokinetics of the hAmy-PEG5k and hAmy-PEG20k were characterized in vivo in Harlan Sprague Dawley male rats. The animals were housed in a temperature-controlled room with a light-dark cycle of 12 h. Water and food were available ad libitum. Three groups were formed, control (free human amylin, not PEGylated), hAmy-PEG5k and hAmy-PEG20k. Animals received 500 uL of saline containing 100 μg of human amylin peptides, either free human amylin or purified monoPEGylated human amylin derivatives. Blood was collected retro-orbitally from rats (n=3 rats for each time interval), and the plasma was subjected to ELISA assay for human amylin as provided by the manufacturer (Millipore, Cat Number EZHA-52K.

[6] = Short-term pH-dependent aggregation, ThT fluorescence; format: physicochemical; settings: pH 3.0 to 10.0, 24h at 25° C.; FIGS. 10, 11
Description: In a first setting, free human amylin, […] incubated in aqueous buffered solutions with different pH (from 3.0 to 10.0) in the presence of ThT. Fluorescence emissions derived from ThT binding to amyloid fibers were monitored for 24h at 25° C. […] These findings support the hypothesis that acylated derivatives of human amylin have increased stability in aqueous solutions, especially, in physiologic pH ranges.

Sequence of RAMP2 (O60895 43-175, species assumed): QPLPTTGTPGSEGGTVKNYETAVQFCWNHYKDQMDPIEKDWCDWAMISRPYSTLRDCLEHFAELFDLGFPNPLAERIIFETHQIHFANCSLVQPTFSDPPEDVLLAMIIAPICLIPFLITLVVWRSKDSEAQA

detemir
aggregation (ThT binding) [1]: negligible aggregation

KCNTATCATQRLANFLVHSSNNFGAILSSTNVGSNTY [human amylin]
aggregation (ThT binding to amyloid fibrils) ([2]; 50 μM): aggregates very fast
aggregation (ThT binding to amyloid fibrils) ([2]; in 3 days): almost all free human amylin was aggregated in amyloid form
aggregation (ThT binding) [1]: aggregates

HEWL: unrelated protein hen egg white lisozyme, control for non-specific binding
apparent binding affinity for the coreceptor RAMP3 (RAMP3): nonspecific binding
apparent binding affinity for the coreceptor RAMP2 (RAMP2): nonspecific binding

hAmy-PEG5k: monopegylated amylin obtained by the reaction of human amylin and mPEG 5000 Da (KCNTATCATQRLANFLVHSSNNFGAILSSTNVGSNTY; not fully specified (C-terminus, bridges); cysteine pairing not given here; also: mono-PEGylated with mPEG 5000 Da, site not given here)
aggregation at different pH, long term [3]: remains non-aggregated
pI [4]: approximately 9.2
aggregation (ThT binding to amyloid fibrils) ([2]; at day 7): no signs of aggregation
aggregation (ThT binding) [1]: does not
plasma decay / duration of stability in plasma [5]: longer duration of stability in plasma
aggregation kinetics / aqueous stability (ThT) [6]: improved aqueous stability and lower or absent formation of amyloid fibers

insulin R: recombinant insulin
aggregation (ThT binding) [1]: negligible aggregation

glargine
aggregation (ThT binding) [1]: negligible aggregation
